In US20200308591A1, “PROMOTER REGION ANALYSIS METHODS AND CELLS FOR PRACTICING SAME” (Eurofins DiscoverX Corporation, priority 2019, published 2020):
pEC50: −log10 of the molar value. Like-named read-outs stand apart in the source and are kept apart here.

Experiments:
NFAT signaling pathways = experiment: U2OS NFAT EFC reporter assay, PMA/ionomycin stimulation; type: cell-based; settings: 5,000 cells, stimulated 20h, components given together as cocktail, read-out: potency of the cocktail expressed as component concentration
Experimental: NFAT EFC Reporter construct includes a promoter with 4 tandemly repeated (4×) NFAT transcription factor binding response elements, each having the sequence: […] (SEQ ID NO:5).
Cells were stimulated for 20h followed by detection by PathHunter® FLASH detection reagent (+Enzyme Acceptor (EA)) with cell lysis for 1h. 5K and 10K refers to the number of cells plated in each well of a 384 well plate. S/B is signal (top) over background (bottom) of the assay response curve.
A “cell stimulation” cocktail of phorbol 12-myristate 13-acetate (PMA) and ionomycin is known to activate “NFAT signaling pathways” and the NFAT transcription factor. […] Inhibition could be detected as decreases in relative light units (RLUs) with test compounds in the presence of stimulating doses of cell stimulation cocktail or other activating ligands.

IL2 promoter = experiment: Jurkat IL2-promoter EFC reporter assay; type: cell-based; settings: 5K cells, stimulated 16h; ionomycin via NFAT, PMA via AP-1 response elements
Description: FIG. 9. Plasmid map for IL2-Promoter-EFC Reporter Plasmid. In this reporter construct, the complete endogenous IL2 gene promoter (“IL2prom”), which contains multiple specific transcription factor binding sites is fused upstream of and drives expression of carrier protein-ePL which is fused to a carrier protein. Contained within the IL2 promoter are binding sites for NFAT (1), NFkB (2), OCT (3), ARRE-2 (4) and NFAT/API (6) transcription factors and the IL2 minimal promoter (7). The DNA sequence of the IL2 promoter used is gtac[…]gctag (SEQ ID NO: 11) and is comprised of 8 different transcription factor binding sites and an IL-2 core promoter as described by Weaver et. al. (Molecular Immunology, 6 Mar. 2007, 44(11):2813-2819). The following 8 DNA elements […] (SEQ ID NO: 12), […] (SEQ ID NO:13), […] (SEQ ID NO:14), […] (SEQ ID NO:15), […] (SEQ ID NO:16), […] […]
FIG. 10. […] 5K Jurkat IL2 promoter reporter cells were plated in wells of 384 well plate and stimulated for 16h with either […] (squares) or […]+CD28 antibody (circles) at 37′C prior to adding FLASH detection reagent (+5×EA) with cell lysis (and reading EFC luminescence). […]
FIG. 11. […] 5K cells were plated in wells of 384 well plate and stimulated for 16h prior to adding FLASH detection reagent (+5×EA) with cell lysis (and reading luminescence). S/B is calculated by taking the RLU (with PMA/ionomycin)/RLU (without PMA/ionomycin).

[1] = molecular target: CD40 receptor, endogenous in U2OS NFκB EFC reporter cells (UniProt P25942); experiment: cell-based or functional assay
CD40 receptor, endogenous in U2OS NFκB EFC reporter cells, sequence (P25942 21-277 limits assumed): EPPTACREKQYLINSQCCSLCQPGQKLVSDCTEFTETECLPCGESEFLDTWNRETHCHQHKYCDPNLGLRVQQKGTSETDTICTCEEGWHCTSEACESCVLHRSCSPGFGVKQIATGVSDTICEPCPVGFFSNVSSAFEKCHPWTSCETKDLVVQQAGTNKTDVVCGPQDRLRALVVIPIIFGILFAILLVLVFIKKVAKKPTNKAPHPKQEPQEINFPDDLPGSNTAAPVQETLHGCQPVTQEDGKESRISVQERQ

[2] = molecular target: endogenous IL-6 receptor in HepG2 cells (UniProt P08887); experiment: cell-based or functional assay
IL-6 receptor = molecular target: T1, IL-6 receptor (Homo sapiens, UniProt P08887); experiment: HepG2 STAT3 pathway reporter cell line (Example 9); type: cell-based; settings: 5000 cells/well; 16 h at 37 °C
T1 construct: uses endogenous IL-6 receptor in HepG2 cells to detect IL-6 signaling; endogenous in cells; host or cells: HepG2
T1 sequence (P08887 20-468): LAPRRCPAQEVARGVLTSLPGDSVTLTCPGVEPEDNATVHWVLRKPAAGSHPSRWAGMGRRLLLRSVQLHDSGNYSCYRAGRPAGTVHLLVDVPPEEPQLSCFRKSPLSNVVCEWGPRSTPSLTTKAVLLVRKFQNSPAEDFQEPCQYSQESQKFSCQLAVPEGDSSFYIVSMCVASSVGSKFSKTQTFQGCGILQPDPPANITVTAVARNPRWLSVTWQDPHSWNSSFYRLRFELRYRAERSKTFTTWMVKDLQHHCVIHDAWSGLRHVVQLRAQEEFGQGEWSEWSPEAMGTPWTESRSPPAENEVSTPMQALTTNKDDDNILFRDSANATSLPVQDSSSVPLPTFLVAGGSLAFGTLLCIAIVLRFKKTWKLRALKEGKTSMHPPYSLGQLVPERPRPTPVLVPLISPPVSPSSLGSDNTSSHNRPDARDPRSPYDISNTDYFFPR
T1 sequence (P40189 23-918 partner): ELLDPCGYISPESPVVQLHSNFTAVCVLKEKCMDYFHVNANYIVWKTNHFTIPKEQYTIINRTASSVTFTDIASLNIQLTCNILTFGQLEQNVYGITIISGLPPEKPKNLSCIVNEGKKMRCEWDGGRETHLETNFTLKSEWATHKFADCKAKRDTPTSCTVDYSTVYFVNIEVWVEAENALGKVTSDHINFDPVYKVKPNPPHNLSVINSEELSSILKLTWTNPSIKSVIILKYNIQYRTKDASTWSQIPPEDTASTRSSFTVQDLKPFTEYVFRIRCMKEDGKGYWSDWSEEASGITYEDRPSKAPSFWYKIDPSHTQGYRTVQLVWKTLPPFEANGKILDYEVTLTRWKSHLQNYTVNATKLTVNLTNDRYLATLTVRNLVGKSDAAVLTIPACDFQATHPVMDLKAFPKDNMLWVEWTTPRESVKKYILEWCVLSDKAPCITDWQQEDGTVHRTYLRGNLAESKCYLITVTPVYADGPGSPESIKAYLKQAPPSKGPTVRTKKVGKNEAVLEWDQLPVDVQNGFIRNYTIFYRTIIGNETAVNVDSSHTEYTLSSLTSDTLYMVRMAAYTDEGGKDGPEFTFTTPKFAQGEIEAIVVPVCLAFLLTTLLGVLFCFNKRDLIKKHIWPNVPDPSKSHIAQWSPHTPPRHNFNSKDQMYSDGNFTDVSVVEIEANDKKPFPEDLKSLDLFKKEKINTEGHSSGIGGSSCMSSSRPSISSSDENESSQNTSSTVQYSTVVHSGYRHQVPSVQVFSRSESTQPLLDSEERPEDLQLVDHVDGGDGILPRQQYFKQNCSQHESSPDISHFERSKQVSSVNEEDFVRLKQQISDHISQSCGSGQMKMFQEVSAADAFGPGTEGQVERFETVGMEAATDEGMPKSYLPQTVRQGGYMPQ
Description: A reporter cell line was engineered to express an Enzyme Donor (ED) tagged carrier protein controlled by a pathway-inducible transcriptional response element. Pathway activation results in induced expressions of the ED-tagged protein. Addition of exogenous Enzyme Acceptor (EA), and buffer, lyses the cell and forces complementation of the ED and EA enzyme fragments.
In this example, the cell line is a STAT3 (signal transducer and activator of transcription 3) pathway reporter cell line. The cells are HepG2 cells that include a nucleic acid encoding a β-galactosidase donor fragment (ED) having the amino acid sequence […] (SEQ ID NO:30) operably coupled to a promoter region comprising a STAT3 response element.
Cells were plated in a 96-well plate and incubated at 37° C. and 5% CO2 to allow the cells to attach and grow. Cells were then stimulated with a control agonist (here, IL-6), using the assay conditions described below. Following stimulation, signal was detected using the PathHunter® ProLabel®/ProLink™ Detection Kit (Eurofins DiscoverX Corporation) according to the recommended protocol.
Cell line for HepG2 STAT3 assay uses endogenous IL-6 receptor in HepG2 cells to detect IL-6 signaling.

[3] = molecular target: human T-cell receptor CD3 subunit on Jurkat cells (human) (UniProt P07766); experiment: cell-based or functional assay
TNFα = TNFα (Homo sapiens, UniProt P01375); experiment: U2OS NFkB EFC reporter assay, inhibition of TNFα-stimulated NF-κB signaling; type: cell-based
TNFα, sequence (P01375 77-233 limits assumed): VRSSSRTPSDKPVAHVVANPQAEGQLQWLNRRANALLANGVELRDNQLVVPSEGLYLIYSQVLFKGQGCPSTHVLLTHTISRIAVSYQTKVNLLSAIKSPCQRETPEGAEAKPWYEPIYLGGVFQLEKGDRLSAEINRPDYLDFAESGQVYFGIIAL
Experimental: FIG. 5. Screening of inhibitors using U2OS NFkB EFC reporter cell-based assay. U2OS NFkB EFC reporter cells were treated with 2 nM TNFα (agonist) with or without various concentrations (and 3 lots) of anti-TNFα inhibitor adalimumab. In this example, the 3 lots of Humira tested were all derived from lot #1047318 run through a forced degradation protocol to simulate decreased specific activity or loss of activity where samples were non-stressed (e.g. the control), stressed 70° C. for 15 min and stressed 70° C. for 30 min.
U2OS NF-κB EFC Reporter cells can also be used to measure inhibition and study inhibitors of NF-κB signaling. […] The dose-dependence of this inhibitory response allowed measurement of the potency of different lots of adalimumab. […] Note that forced degradation is a method used in development of assay for biologics (protein therapeutics) to simulate lots with different potency, e.g. for QC/lot release assays, or loss of potency from various causes. […] The stability of Humira® over time can also be studied using this assay. It can be seen that two lots of Humira® stored at 4° C.
FIG. 6. […] The stability of expired lot #1017235 was also equivalent to that of lot #1047318 in the forced degradation experiment shown in FIG. 5.

CD40 ligand (CD40L), sequence (P29965 113-261 limits assumed): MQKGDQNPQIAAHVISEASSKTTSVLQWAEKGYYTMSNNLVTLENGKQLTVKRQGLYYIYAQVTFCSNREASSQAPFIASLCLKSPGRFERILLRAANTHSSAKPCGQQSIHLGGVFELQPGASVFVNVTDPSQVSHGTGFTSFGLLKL
IL-6, sequence (P05231 30-212 limits assumed): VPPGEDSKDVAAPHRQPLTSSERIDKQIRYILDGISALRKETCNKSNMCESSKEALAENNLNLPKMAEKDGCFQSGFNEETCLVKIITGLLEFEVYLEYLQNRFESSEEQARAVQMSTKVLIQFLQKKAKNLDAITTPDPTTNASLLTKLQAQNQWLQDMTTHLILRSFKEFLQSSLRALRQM

## CCCCCCCCCCCCCC(=O)O[C@@H]1[C@@H](C)[C@@]2(O)[C@@H](C=C(CO)C[C@]3(O)C(=O)C(C)=C[C@@H]23)[C@@H]2C(C)(C)[C@]12OC(C)=O [PMA, phorbol 12-myristate 13-acetate]
NFAT signaling pathways
  pEC50: 8.42
IL2 promoter
  activation of elements in the IL2-promoter EFC reporter construct: increase the activation

## C[C@H](CCC(=O)O)C[C@H](C)C[C@H](C)C(=O)/C=C(\O)[C@H](C)C[C@H](C)C/C=C/[C@@H](C)[C@@H](O)[C@@H](C)[C@@H](O)C[C@@H]1CC[C@@](C)([C@H]2CC[C@@](C)([C@@H](C)O)O2)O1 [ionomycin]
NFAT signaling pathways; Homo sapiens, U2OS
  pEC50: 7.20
IL2 promoter
  activation of elements in the IL2-promoter EFC reporter construct: increase the activation

## CD40 ligand (CD40L) (from UniProt P29965 113-261)
[1]
  EC50 for control agonist stimulation, U2OS NF-κB pathway reporter cell line (Example 12): 0.0886 µg/mL
  EC50 for control agonist stimulation, U2OS NFκB pathway reporter cell line (Example 7): 0.225 µg/mL
  signal:background ratio at agonist EMAX, U2OS NFκB pathway reporter cell line (Example 7): 26.3
  signal:background ratio, U2OS NF-κB pathway reporter cell line (Example 12): 103

## IL-6 (from UniProt P05231 30-212) (ligand)
[2]
  EC50 for control agonist stimulation, HepG2 STAT3 pathway reporter cell line: 0.000601 µg/mL
  signal:background ratio at agonist EMAX, HepG2 STAT3 pathway reporter cell line: 21.3

## IL-6: control agonist signalling through endogenous IL-6 receptor in HepG2 cells
IL-6 receptor
  EC50 for control agonist stimulation: 0.000601 µg/mL
  signal:background ratio at agonist EMAX: 21.3

## OKT3 ligand expressed and presented on the surface of CHO-K1 cells (scFv)
[3]
  EC50 of stimulating OKT3 cells, Jurkat NFAT EFC reporter co-culture assay: 700 cells

## adalimumab
TNFα; 2 nM TNFα (agonist)
  inhibition of TNFα-stimulated NF-κB signaling: can inhibit
TNFα; samples subjected to forced degradation for 0, 15 or 30 min at 70° C.
  change of inhibitory potency after forced degradation: graded loss of potency (right shift)

## anti-CD3 antibody [OKT3]
[3]
  EC50 for control agonist stimulation, Jurkat NFAT pathway reporter cell line (Example 8, plate-coated antibody): 0.302 µg/mL
  signal:background ratio at agonist EMAX, Jurkat NFAT pathway reporter cell line (Example 8): 7.6
